The values that follow come from article PMC10348947, “Catalytic antibodies in arrhythmogenic cardiomyopathy patients cleave desmoglein 2 and N-cadherin and impair cardiomyocyte cohesion” (Cellular and Molecular Life Sciences: CMLS, 2023).

The data set deals with the molecule itself. Put plainly: atomic force microscopy (cell-free force spectroscopy); the same Fc construct covalently linked via a PEG linker to the AFM tip and to the mica sheet; 37 °C; HBSS buffer; loading force 0.3 nN, contact delay 0.1 s, retraction velocity 1 µm/s; 1000 force-distance curves for the baseline trans-interaction probability, then 1 h with patient or control IgG (1:50).

B1: Recombinant human N-cadherin extracellular domain tagged with Fc fragment (N-CAD-Fc) (Fc fusion, UniProt P19022 160-724, looked up)
chain: DWVIPPINLPENSRGPFPQELVRIRSDRDKNLSLRYSVTGPGADQPPTGIFIINPISGQLSVTKPLDREQIARFHLRAHAVDINGNQVENPIDIVINVIDMNDNRPEFLHQVWNGTVPEGSKPGTYVMTVTAIDADDPNALNGMLRYRIVSQAPSTPSPNMFTINNETGDIITVAAGLDREKVQQYTLIIQATDMEGNPTYGLSNTATAVITVTDVNDNPPEFTAMTFYGEVPENRVDIIVANLTVTDKDQPHTPAWNAVYRISGGDPTGRFAIQTDPNSNDGLVTVVKPIDFETNRMFVLTVAAENQVPLAKGIQHPPQSTATVSVTVIDVNENPYFAPNPKIIRQEEGLHAGTMLTTFTAQDPDRYMQQNIRYTKLSDPANWLKIDPVNGQITTIAVLDRESPNVKNNIYNATFLASDNGIPPMSGTGTLQIYLLDINDNAPQVLPQEAETCETPDPNSINITALDYDIDPNAGPFAFDLPLSPVTIKRNWTITRLNGDFAQLNLKIKFLEAGIYEVPIIITDSGNPPKSNISILRVKVCQCDSNGDCTDVDRIVGAGLGTGA
notes: N-cadherin (N-CAD), human, extracellular domain-containing protein; The Western blot and cleavage assay used Sino Biological #11039-H03H, probably the same protein; The chain was covalently linked through a PEG linker to the AFM tip and the mica sheet; also called hN-CAD-Fc
Regarding B1, the binding result is “binds”.
